# Measurements taken from the DeepSol protein solubility set.
# Assay: soluble on expression in E. coli; label from the status in PepcDB or PDB records
row,Sequence,soluble on expression in E. coli
1,MGSDKIHHHHHHMKIGTYQRLKAIKFLDFGVYLLEELTQEEVLLPKRYVPEGLEMGAMLEVFLYTDSEDRPVATTLKPKAILGEVAALEVVSVSERGCYLDLGIAKDIFMPCKNPYSFHEGQKVVVRLDLDKEKRLIARIGVKNYLQNAPVTLRPFTEVEILPFEWSTLGYGCMVNGRYFGMLFNNETFEKLPLGEARKGYIKAVRPDGKIDLSLRKSQGAGGLKEELEKLMKALQSAGGKLELHYDSDPDEISKITGLSKKGFKRALGEAIRSQKVELVAGKGIEQIR,not soluble
2,MGSDKIHHHHHHMGTKKNFVIDTNVILHDYNCLKNFQENDIHLPLVVLEELDKFKKGNEQINFNAREFVRELDLLTSDELFSQGVSLGEGMGRLFVVPGNVDAPKVHESFPVKKPDHLILAAVEYLAAKYPKTPAILVTKDVNLRMKARSIGITSEDYITDKVSNVDIFEKSNEIFENVDPALIDRIYSSKEGIDLSEFDFKDVIHPNECFVLKSDRNSVLARYNPFTHSICRVTKGRNYGIEPRNAEQSFAFEILNDPNVKLVALTGKAGTGKTLLALAAALGKLTDYKQVLLARPVVALSNKDIGFLPGDAQEKVAPYMQPLFDNLNVIKRQFAANSTEVKRIEDMQKSEQLVIEALAFIRGRSLSEMYCIIDEAQNLTPNEIKTIITRAGEGTKMVFTGDIQQIDQPYLDSQSNGLVYMIDRMKDQNIFAHVNLVKGERSQLSELASNLL,not soluble
3,MSSETRRKILEAARKAFSKYGYDGVSMEEIAREAGVKKALIYYYFPSKDKLFEEVWREALEELESHLFAVTEETNSYFAKIKKFLKSYVDFVLNKTVLNEIIEKEKSTVRFEEEKWSKLRERYESFIKRVEELIEEGKKQNYVYKDLDSRAAAELIVNSFGDVPKDKRLLQNIQEMILRGLLNVKTEEGR,not soluble
4,MSLSETLRLGLICAGRMGSFHGQTAALRIPGACLAAIADPTPGQAARLATELGVERFYTDPQQLLDDPDIDGVLIAAPARSHAELVISAARAGKGVFCEKPMAITLDEADRAIAAAADAQVTLQVGFNRRFAKSFRTAHLDVVAGRIGTPQLLRSLTRDPALNNPAASPQWVIFLETLIHDFDSLRYLNPGAEAVEVFVMADALIAPDYKSKGFLDTAVVTIRFDNGAIATAEANFQAVYGYDVRGEVFGSAGMLTMGSVNDSDLVRYLANGIQSDTQRLDTDLLRDAYVAELNHFADCLRTGAKPLASGEDARAALAIARACIESFQLGKAVRVEGARSEGHHHHHH,not soluble
5,MTNNQTLDILLDVYAYNHAFRIAKALPNIPKTALYLLEMLKERRELNLAFLAEHAAENRTIEDQYHCSLWLNQSLEDEQIANYILDLEVKVKNGAIIDFVRSVSPILYRLFLRLITSEIPNFKAYIFDTKNDQYDTWHFQAMLESDHEVFKAYLSQKQSRNVTTKSLADMLTLTSLPQEIKDLVFLLRHFEKAVRNPLAHLIKPFDEEELHRTTHFSSQAFLENIITLATFSGVIYRREPFYFDDMNAIIKKELSLWRQSIV,not soluble
6,MGSDKIHHHHHHMEFSNAERDVFLIKIEKMIDRGALMSRYSRASDPDIRSVYEKEFKTGAKSGEEFYRRIFLEYGDESIAELTTAQMGIQNVSNVASKIIEEIRIGLSYLEKSTRYVRYDKKVDGRYLYISPERIGISGDDAKDYVQLCDNLFEFYSKALPQVEDYLRHKFPQDKLVFQNAGGKTLTEMDQNEKKIAERSYINAVRSRALDDVRYILPASTLTNIGISGNGRALIHLIQKLMEYEIPETTKLAKDIYDELKPELPQLIDDALSGHGLEIINFKKNLMGLFPYDLTGNFERIRLLSYGEEDKELRKVASLIEYPFHGDAASLYSRSSESYVKYMKELIESIRSLRANRRMKPGRAFESVNYVFELNLNYGSFRDLQRHRFLGIIRKPLTAAYGYDTPPVISAIDELKTQYDELMANSSSFYQRLREKYGPWISQYVVPFAFKYPITFSTNLSEVTYFVELRSTAQAHFDLRDIAVSMYREVSKVHPTLSRIIKFVDTADYPLGRLSAEFRKESKKAGI,not soluble
7,MPLADIADVDIDPKGVFKYILIQVTDNSTKQQKFVVRGYYRCSFHDDILQETKSSAPSDLKLKCVGGGRIKHDEIGKDILVYGYSYGYGRADHQIAVDILKQKYPDYNIHFSNDGY,not soluble
8,MENKSIAIFIDAENIPAKYAKSIFDIASDYGEVIIKRIYGDWTQKNIQGWREQIAEYSLIAMQQFNFAANKNSSDMYLITEIMSIFYEKNIDIFVIVSSDSDYTSLIQKLRENKKQVIGMGLEKSIKSYVNAFSEFFYLDKDESKKEDILSKDYLRALINITEQLIDEKGRAEYAQIRTNMNRKYSDFHPQNYGFKNFRALIQKFLPKMKKFEEEREKNIYFLVKKDYESYYLEHHHHHH,not soluble
9,MGSDKIHHHHHHMDDYGYRALPDALGTTYGSYLSAKSASGRYTVYVGANDGMLHAFDAGMTADGSMDASGGLERFAYIPATALGHMGNLLLPSDPTNRTTEYEHRYYVDGPVVVGDANYAGSWKTVVVGAAGAGGRSIFALDVTNPSNFSTSSKLWEISDLDSSLSTAIRNNIGHVLGKPVIVPVKNAAGAVTWKAIFGNGYNSRNGKAVLFVVDIKTGAPAVTMIEATETGSTIAGSNGLGNIVVVDRWGGASQTDGVRDGYADTVYGADQKGAIWKFDLRSSAASVTVPFFTTRTSVESGQTYRQPITGGLVATAGDAGGVMLFFGTGSFSFESDPKDEAIQSLYGVNDTVRGAPLTTATRANLRGSTVVQDGDRTLSRAAAPANSQGWYVDLPAKERMVGSPSIASGIVFIPTYTPAVVSSGCKPDGANWLFGLDTRTGDGALMDARKGSPTGASFASRTAATPLTTSGNAPVKDVGVSAIPRLSPAESGSAPGGQACWMVVTAAGSGPLYIPYPCGRQSWRQVQ,not soluble
10,ILLLLLSLFLGLSSQAQEDSLQANRYVMRATLYGAGFTNILDTYLSPMEYTGPEIRILRESMRMTKLMNGNVSVQSLFQANLSLTENKAETSNEMAGMVNWNYALHYQFRLTENLKILAGPMLDLNGGFIYNMRNSNNPAQAKAYVNLAASGMVIYRFHIGNYPLIARYQANLPVMGIMFSPEYGQSYYEIFSLKNGGKNVLFTSLHNQPSLRQLVTLDFPIRSVNMRFGYLCDIQQAKVNNLKSHIWSHAFMIGFVKNFYLLKGKNKVAMPSRVSPY,not soluble
11,MLQLKNIGILSTYNSKTDSFDYLKNCNIDIENGIIIGLGDSNHNGDQVIDCNHKLVTPGFVDAHTHPVFVNGREKEFIERISGKSYQEISNKGGGINSSIIRVREIDEIDLLDLVIKRMDDFIYMGTTTIEAKTGYGLNTDSELKSLRVLENAHNKHKIDIFPTFLGAHSVPNEYNGDSNAYTDLLCNEMIPAVAKQGIAKFCDVFCEEEYFDCNQSRKILEKAVEYGLIPRMHTDEFSSIGGVKIASKINAISADHLMEISDEDIELLANSNTIAILLPGTTFFLGKTTYAPARKLIDKGVHVSIATDFNPGSCHIKSMPFIIGLSCIYLGLSIEEALKAATWSGACAINEQERIGSIEVGKKADLIIWDLDTIDQIPYNIINAPIVNVIKDGVPLITLD,soluble
12,REFAPPPNLPDPKFESKAALLAARGPEELLCFTERLEDLVCFWEEAASAGVGPGQYSFSYQLEDEPWKLCRLHQAPTARGAVRFWCSLPTADTSSFVPLELRVTAASGAPRYHRVIHINEVVLLDAPVGLVARLADESGHVVLRWLPPPETPMTSHIRYEVDVSAGQGAGSVQRVEILEGRTECVLSNLRGRTRYTFAVRARMAEPSFGGFWSEWSEPVSLLTPSDLD,soluble
13,MVSEQHAVDICLDKLRFYEVLSAHGFPVVPTALSLAELDDGDYVVKERYGAGATNIGLRLTKEEANRHAQKLEAPVFQPFIAGAEFSIDLYMTRTGRVKGAVARTREYVVNGESQITTTIRNEKLEDMCIAVASYLRLYGHAVMQVIIDYEGQFHLIECNPRFGGASTVSLEAGLDSFYWFFLESQGGDLDDYPFSRSMKEKRQIRYPADFVIDL,not soluble
14,MAHHHHHHMEASAPGKVLILGSYLIVESCTPANVGISIGVNARFTTRIVKAEPTTTGASGKTTIHMRSPQFRQSFCFVANTSAPGTVAVKQTEGPGSPFIFNAVLYSVAAAQSLGSSTDGEIWVELLADNDFYSQRNYLESQGKDVNVANLRSLPPHLPLVGAISKTGLGSSAAMTTSIVACLCHHFNADGCSHEYVHRIAQIAHSVTQGKIGSGFDVYTAVYGTCAYRRFPVSRVSMMMMASAQPPSSVEVETLRRCVDMNEVWVPPESFRLPPGVKLVLGDVHQGGSCTPGMVAKIMAWRKSVADTPDNLWEQLRRNNEAYIAALRRMIDEAAAKPDVYAASMAALQQVPSLPLFRADGESMQCIVEASRFAARSRALLRDMGVAAEVKVEPVELTDLLDDTATLPGVFAVGCPGAGGYDAVFALVLGDECAAAVEAFWEHYTKMNVCPLLVREDPSGLLIQPPP,soluble
15,PPFTGDERASIQRACEAGVEKIIVPATEAAHFPRVLALAARFPSLYAALGLHPIVIERHADDDSDKLQQALAQQQNVVAVGEIGLDLYRDDPQFARQERFLDAQLQLAKRYDLPVILHSRRTHDKLAMHLKRQDLPRTGVVHGFAGSLQQAERFVRLGYKIGVGGTITYPRASKTRDVMARLPLDALLLETDAPDMPLKGFQGQPNRPEQAARVFDALCELRPE,not soluble
16,MGSDKIHHHHHHMNIQQLRYVVAIANSGTFREAAAKLFVSQPSLSVAVRDLETELGFQIFTRTTTGAVLTNQGMTFYENALEVVKSFDSFEKQFSQSEATEQEFSIASQHYDFLPPLITAFSKCNDNFSYFRIFESTTIRILDEVAQGNSEIGIIYINSQNKKGLLQRLDKLGLEFVELIPFKTHIYLGKDHPLASKTSLIMTDLEGLPTVRFTQDRDDYRYYSENFVEVLDSSVTYNVTDRATLNGILERTQAYATGSGFLDSRSVNGITVIPLEDHLDNQMIYIKRKDRNLSQMALKFVAVMEEYFKGFNS,not soluble
17,MTIDMRLRPPLQSWKSTAQFKEGTAYYPTRYGFPRPKSVGTQDIGDLLAEMDEADITWGVVMGRQSAPPHGIVPNEEISDFVRQHADRFVGFAGIDLRDIDKAVADLDGYARSDEFKGISIEPGAGFVPLYSDDPSLFPLYERAQELQLPLSITLSGYLSSMAGHPTSYGNPSPVATVARKFPRLKIVVSHAAWPNVMPMLEVAFLHDNVYVSPDLYMNHVHTPGAHEYINAAKFYLADRLLFGTAYPSRPLKESVAGFRQWDLDSELAEKILHRNAARLLGLELEHHHHHH,not soluble
18,AHHHHHHGSRVLVTTWGNPFQWEPITYEYRGIKVKSRNTLPILVKTLEPERILILVADTMANYYDSGKNKPEIEEKSFSSYSEVVEDTKERILWHIKEEVIEELREEDPELAKKIENMLKDERITIEVLPGVGVFGNITVEGEMLDFYYYATYKLAEWLPVQNNLEVYLDLTHGINFMPTFTYRALRNLLGLLAYLYNVKFEIVNSEPYPLGVSQEIREDTILHIREIGEGVVRPRPQYSPVEGKLYWNAFISSVANGFPLVFASFYPNIRDVEDYLNKKLEEFLVGIEVGEREDGKPYVKREKALDRSFKNASKLYYALRVFNTKFQNYPKKEVPIEEIMEISKIFESLPRIGIILERQVEWLRNLVYGRLWYENGEQKIKKGLLEIIKDKKDKRKEAEALKKGKTISLAEAAKLTRIFSPSGERIETIESPNVVRNFIAHSGFEYNIVYVKYDRLSDRLYFFYKDKEKAANLAYEALLYRGEKE,soluble
